Measurements published in article PMC5150656, “Detecting stoichiometry of macromolecular complexes in live cells using FRET” (Nature Communications, 2016).
One block for each binder: values may come before it.

Target: T1, ECFP-tagged calmodulin (CaM) (UniProt P0DP23 1-149)
T1 construct: calmodulin (CaM); also called ECFP-CaM; ECFP fused CaM; source: HEK293, transiently transfected, in live cells
Experiment: FRET or BRET; FRET 2-hybrid (3^3-FRET and E-FRET) in single live HEK293 cells, room temperature, basal (resting) Ca2+: Tyrode's bath with 2 mM Ca2+; relative (effective) dissociation constants Kd,EFF; stoichiometry ratio ν = EA,max/ED,max
Details: partners not purified

B1: EYFP-tagged full length myosin Va neck domain peptide containing six IQ domains (IQ1-6) (domain or fragment)
chain: LRAACIRIQKTIRGWLLRKRYLCMQRAAITVQRYVRGYQARCYAKFLRRTKAATTIQKYWRMYVVRRRYKIRRAATIVIQSYLRGYLTRNRYRKILREYKAVIIQKRVRGWLARTHYKRTMKAIVYLQCCFRRMMAKRELKKLKIEARSVERYKK
notes: mouse myosin Va full length neck domain, six tandem IQ domains IQ1-6, residues L766-K920 (Uniprot Q99104); A three amino-acid linker 'AAA' joins EYFP with the peptide; source: HEK293, transiently transfected, in live cells
Kd: ~25 nM

B4: EYFP tagged myosin Va five tandem IQ domain truncation (IQ2-6) (domain or fragment)
chain: MQRAAITVQRYVRGYQARCYAKFLRRTKAATTIQKYWRMYVVRRRYKIRRAATIVIQSYLRGYLTRNRYRKILREYKAVIIQKRVRGWLARTHYKRTMKAIVYLQCCFRRMMAKRELKKLKIEARSVERYKK
notes: mouse myosin Va neck domain, five tandem IQ domains IQ2-6, residues M789-K920 (Uniprot Q99104); A three amino-acid linker 'AAA' joins EYFP with the peptide; source: HEK293, transiently transfected, in live cells
Kd: ~25 nM

B5: EYFP tagged myosin Va four tandem IQ domain peptide (IQ3-6) (domain or fragment)
chain: RTKAATTIQKYWRMYVVRRRYKIRRAATIVIQSYLRGYLTRNRYRKILREYKAVIIQKRVRGWLARTHYKRTMKAIVYLQCCFRRMMAKRELKKLKIEARSVERYKK
notes: mouse myosin Va neck domain, four tandem IQ domains IQ3-6, residues R814-K920 (Uniprot Q99104); A three amino-acid linker 'AAA' joins EYFP with the peptide; source: HEK293, transiently transfected, in live cells
Kd: ~25 nM

The remaining lines, values ahead:

Kd: ~25 nM
B2: EYFP tagged myosin Va three tandem IQ domain peptide (IQ4-6) (domain or fragment)
chain: RRAATIVIQSYLRGYLTRNRYRKILREYKAVIIQKRVRGWLARTHYKRTMKAIVYLQCCFRRMMAKRELKKLKIEARSVERYKK
notes: mouse myosin Va neck domain, three tandem IQ domains IQ4-6, residues R837-K920 (Uniprot Q99104); A three amino-acid linker 'AAA' joins EYFP with the peptide; source: HEK293, transiently transfected, in live cells

Kd: ~25 nM
B3: EYFP tagged myosin Va two tandem IQ domain peptide (IQ5-6) (domain or fragment)
chain: REYKAVIIQKRVRGWLARTHYKRTMKAIVYLQCCFRRMMAKRELKKLKIEARSVERYKK
notes: mouse myosin Va neck domain, two tandem IQ domains IQ5-6, residues R862-K920 (Uniprot Q99104); A three amino-acid linker 'AAA' joins EYFP with the peptide; source: HEK293, transiently transfected, in live cells

Kd: ~25 nM
B6: EYFP tagged myosin Va peptide containing a single IQ domain (IQ6) (domain or fragment)
chain: TMKAIVYLQCCFRRMMAKRELKKLKIEARSVERYKK
notes: mouse myosin Va neck domain, single IQ domain IQ6, residues T885-K920 (Uniprot Q99104); A three amino-acid linker 'AAA' joins EYFP with the peptide; also called EYFP-tagged IQ6 peptide; source: HEK293, transiently transfected, in live cells
